Assay results reported in publication PMC6667623, “Regulation of Glutarate Catabolism by GntR Family Regulator CsiR and LysR Family Regulator GcdR in Pseudomonas putida KT2440” (mBio, 2019).

Tests used:
[1] = molecular target: T1, CsiR (Pseudomonas putida KT2440) (UniProt Q88IU1); assay: EMSA; conditions: 10 mM Tris-HCl pH 7.4, 50 mM KCl, 0.5 mM EDTA, 10% glycerol, 1 mM DTT; 30 C, 30 min; 6% native PAGE at 4 C
T1 sequence: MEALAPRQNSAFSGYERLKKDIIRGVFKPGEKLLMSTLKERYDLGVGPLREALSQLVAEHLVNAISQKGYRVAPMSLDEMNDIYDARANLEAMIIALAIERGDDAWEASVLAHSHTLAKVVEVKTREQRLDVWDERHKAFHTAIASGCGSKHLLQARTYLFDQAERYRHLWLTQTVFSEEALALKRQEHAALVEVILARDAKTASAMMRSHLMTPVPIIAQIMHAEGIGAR

[2] = molecular target: T2, GcdR (Pseudomonas putida KT2440) (UniProt Q88RH3); assay: EMSA; conditions: 10 mM Tris-HCl pH 7.4, 50 mM KCl, 0.5 mM EDTA, 10% glycerol, 1 mM DTT; 30 C, 30 min; 6% native PAGE at 4 C
T2 sequence: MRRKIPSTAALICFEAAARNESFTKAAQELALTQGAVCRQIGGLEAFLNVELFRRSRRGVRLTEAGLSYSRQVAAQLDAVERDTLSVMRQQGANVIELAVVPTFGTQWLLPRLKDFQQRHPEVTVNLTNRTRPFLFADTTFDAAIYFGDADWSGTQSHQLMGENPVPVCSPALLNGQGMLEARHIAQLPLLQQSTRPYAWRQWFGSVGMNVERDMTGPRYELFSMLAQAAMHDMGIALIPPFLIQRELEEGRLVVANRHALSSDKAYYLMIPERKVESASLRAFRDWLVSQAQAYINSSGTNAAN

[3] = molecular target: His6-tagged GcdR of P. putida KT2440 (Pseudomonas putida KT2440) (UniProt Q88RH3); assay: SEC; Superdex 200 10/300 GL gel filtration of purified GcdR against molecular mass standards, compared with SDS-PAGE; buffer A (20 mM sodium phosphate, 500 mM sodium chloride, pH 7.4), 0.5 ml min^-1
[4] = molecular target: the molecule itself; assay: SEC; Superdex 200 10/300 GL gel filtration of purified CsiR against molecular mass standards, compared with SDS-PAGE; buffer C (50 mM sodium phosphate, 150 mM sodium chloride, pH 7.2), 0.5 ml min^-1

With “GATCCTGTTCCTCAAAACGTTTTGCCGATCATACCGAAACCCTCTGCTGACGAAAAACAATGGACAAACACGAGTAGTGTCGTTGAAAAATAAAAATGTAGACATTTTCAGTTAGTGGCGATATTTTTACCTCGCCCGCACTGATCCAGGTCATGACCGGACGGCGCCATCTACTTTTTTAGCCAGGACACTGCC (double strand) [F1 (csiR-csiD intergenic region)]” the binding [1] was “binds”.

For “GCCGCCTCGAAGCAAATCAGGGCGGCGGTACTGGGGATCTTACGGCGCATGTACGTCAACCTCACTTGTAAGGCTGTCAATAAGGCGTTTTGCCGATTTACGGAGTGACAAAATATCACTAATCGGTGCGCAATCCTCGTTTGTCGCCGCAGCCGATCAGGCCTAGGCTCAAAGGCACAAGAAACTGACCCCTATTTCGAGGATTCGCTCATGGTCGGTAAAGCAAGTTTCAACTGGATCGACCCGTTGCTGCTGGATCA (double strand)”, the binding [2] was “binds”.

“His6-tagged GcdR of P. putida KT2440 (from UniProt Q88RH3 1-305) (natural protein)” gave a stoichiometry N [3] of 4.

B1: His6-tagged CsiR protein of P. putida KT2440 (natural protein, Pseudomonas putida KT2440, UniProt Q88IU1 1-231, looked up)
chain: MEALAPRQNSAFSGYERLKKDIIRGVFKPGEKLLMSTLKERYDLGVGPLREALSQLVAEHLVNAISQKGYRVAPMSLDEMNDIYDARANLEAMIIALAIERGDDAWEASVLAHSHTLAKVVEVKTREQRLDVWDERHKAFHTAIASGCGSKHLLQARTYLFDQAERYRHLWLTQTVFSEEALALKRQEHAALVEVILARDAKTASAMMRSHLMTPVPIIAQIMHAEGIGAR
notes: CsiR, GntR family transcriptional regulator of Pseudomonas putida KT2440, encoded by csiR (pp2908); gene amplified from genomic DNA with primers csiR-F/csiR-R and cloned BamHI/HindIII into pETDuet-1; Cloning into the BamHI/HindIII sites of pETDuet-1 would usually give an N-terminal His tag (surmise); No tag cleavage is described; also called GntR family regulator CsiR; source: E. coli BL21(DE3) …
B1 was tested, and the “stoichiometry N” value [4] was 2.
